Where a chain is given by its changes, count along the chain named. In names and notes the source's numbering stands.
What was measured:
[1] = target: the molecule itself; test: cross-linking; recombinant PRX3 incubated with indicated concentrations of thiostrepton (TS) for 30 min; reducing SDS-PAGE, immunoblot with anti-PRX3 antibody
[2] = target: the molecule itself; test: cross-linking; EE Mut cycled with and without TS as in the in vitro assay, treated with DTT, exchanged into 25 mM ammonium bicarbonate; intact mass by ESI-TOF MS
[3] = target: the molecule itself; test: cross-linking; in vitro PRX3 turnover: 100 μM PRX3, 5 μM E. coli TRX2, 0.5 μM E. coli TR, NADPH regenerating system (or TCEP), 0.2 mM TS or DMSO, 16-18 h at 37°C, successive additions of 100 μM H2O2; reducing SDS-PAGE, GelCode Blue stain

B1: Human recombinant PRX3 (peroxiredoxin 3), wild type, residues 62-256 (enzyme, UniProt P30048 62-256, looked up)
chain: APAVTQHAPYFKGTAVVNGEFKDLSLDDFKGKYLVLFFYPLDFTFVCPTEIVAFSDKANEFHDVNCEVVAVSVDSHFSHLAWINTPRKNGGLGHMNIALLSDLTKQISRDYGVLLEGSGLALRGLFIIDPNGVIKHLSVNDLPVGRSVEETLRLVKAFQYVETHGEVCPANWTPDSPTIKPSPAASKEYFQKVNQ
notes: peroxiredoxin 3 (PRX3), human, PRDX3 gene residues 62-256, codon optimized, in pET15b; also called rPRX3; WT PRX3; source: E. coli C41 (DE3), purified (nickel-NTA, Q-Sepharose FF, Superdex 200); not shown: His-tag, N-terminal, kept
- binding result [1]: binds

B2: Engineered dimer of PRX3, S139E/A142E (EE Mut), residues 62-256 (enzyme, human, UniProt P30048 62-256, looked up)
chain: B1 chain with S78E, A81E
notes: peroxiredoxin 3 (PRX3), human, PRDX3 gene residues 62-256, two charged residues introduced into the dimer-dimer interface; His-tag removed by digestion with biotinylated thrombin; Measured mass of the reduced monomer 21640.6 amu; also called EE mutant; dimeric variant of PRX3; source: E. coli C41 (DE3), purified (nickel-NTA, Q-Sepharose FF, Superdex 200); not shown: His-tag, N-terminal, cleaved
- stoichiometry N [2]: 2

B3: Human recombinant PRX3 C127S, residues 62-256 (enzyme, UniProt P30048 62-256, looked up)
chain: B1 chain with C66S
notes: peroxiredoxin 3 (PRX3), human, PRDX3 gene residues 62-256, non-catalytic cysteine replaced with serine; also called Cys127 mutant; source: E. coli C41 (DE3), purified (nickel-NTA, Q-Sepharose FF, Superdex 200); not shown: His-tag, N-terminal, kept
- binding result [3]: binds
